Measurements from PMC9541495, “Understanding the interaction of 14‐3‐3 proteins with hDMX and hDM2: a structural and biophysical study” (The Febs Journal, 2022).
[ ]: non-standard residue; d: D form. pS = N[C@@H](COP(=O)(O)O)C(=O)O; FAM = 5,6-carboxyfluorescein; Ahx = NCCCCCC(=O)O

T1: 14‐3‐3η (human, UniProt Q04917 1-246)
T1 construct: 14-3-3 eta, human, full-length protein from the pProEx HTb-His-14-3-3 construct; Captured on an NTA chip in SPR; source: E. coli BL21(DE3), purified (Ni2+-NTA, dialysis)
T1 sequence (looked up): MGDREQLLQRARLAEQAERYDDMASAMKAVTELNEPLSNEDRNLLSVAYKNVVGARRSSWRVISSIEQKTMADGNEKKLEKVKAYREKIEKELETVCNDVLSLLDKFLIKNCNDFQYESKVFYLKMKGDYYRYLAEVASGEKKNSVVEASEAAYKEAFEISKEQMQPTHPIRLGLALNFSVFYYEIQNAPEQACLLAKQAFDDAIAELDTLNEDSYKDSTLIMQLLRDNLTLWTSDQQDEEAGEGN

T2: 14‐3‐3τ (human, UniProt P27348 1-245)
T2 construct: 14-3-3 tau/theta, human, full-length protein from the pProEx HTb-His-14-3-3 construct; Written as the protomer; tag removal is told only for the ∆C proteins; also called τ/θ; source: E. coli BL21(DE3), purified (Ni2+-NTA, dialysis)
T2 sequence (looked up): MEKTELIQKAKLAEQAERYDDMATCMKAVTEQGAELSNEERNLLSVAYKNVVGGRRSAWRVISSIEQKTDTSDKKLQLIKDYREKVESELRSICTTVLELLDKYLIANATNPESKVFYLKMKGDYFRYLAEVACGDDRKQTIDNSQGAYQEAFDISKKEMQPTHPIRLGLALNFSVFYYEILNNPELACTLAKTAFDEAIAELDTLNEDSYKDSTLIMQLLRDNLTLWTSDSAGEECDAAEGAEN

T3: 14‐3‐3ζ (human, UniProt P63104 1-245)
T3 construct: 14-3-3 zeta, human, full-length protein from the pProEx HTb-His-14-3-3 construct; Written as the protomer; tag removal is told only for the ∆C proteins; source: E. coli BL21(DE3), purified (Ni2+-NTA, dialysis)
T3 sequence (looked up): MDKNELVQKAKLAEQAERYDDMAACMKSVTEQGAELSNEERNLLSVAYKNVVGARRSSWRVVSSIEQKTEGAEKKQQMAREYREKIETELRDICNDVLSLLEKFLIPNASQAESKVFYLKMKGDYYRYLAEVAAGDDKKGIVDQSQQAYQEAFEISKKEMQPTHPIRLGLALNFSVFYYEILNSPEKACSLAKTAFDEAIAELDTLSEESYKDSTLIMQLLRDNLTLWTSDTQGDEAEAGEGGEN

T4: 14‐3‐3σ (human, UniProt P31947 1-248)
T4 construct: 14-3-3 sigma, human, full-length protein from the pProEx HTb-His-14-3-3 construct (used in the FA assays); Written as the protomer; tag removal is told only for the ∆C proteins; source: E. coli BL21(DE3), purified (Ni2+-NTA, dialysis)
T4 sequence (looked up): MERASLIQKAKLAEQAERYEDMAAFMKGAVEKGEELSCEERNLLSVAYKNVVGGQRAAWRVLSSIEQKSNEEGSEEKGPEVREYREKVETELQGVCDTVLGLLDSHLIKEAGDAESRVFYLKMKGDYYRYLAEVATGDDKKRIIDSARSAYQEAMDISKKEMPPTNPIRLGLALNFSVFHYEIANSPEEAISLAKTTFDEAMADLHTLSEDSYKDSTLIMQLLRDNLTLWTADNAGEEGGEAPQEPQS

T5: 14‐3‐3ε (human, UniProt P62258 1-255)
T5 construct: 14-3-3 epsilon, human, full-length protein from the pProEx HTb-His-14-3-3 construct; Written as the protomer; tag removal is told only for the ∆C proteins; source: E. coli BL21(DE3), purified (Ni2+-NTA, dialysis)
T5 sequence (looked up): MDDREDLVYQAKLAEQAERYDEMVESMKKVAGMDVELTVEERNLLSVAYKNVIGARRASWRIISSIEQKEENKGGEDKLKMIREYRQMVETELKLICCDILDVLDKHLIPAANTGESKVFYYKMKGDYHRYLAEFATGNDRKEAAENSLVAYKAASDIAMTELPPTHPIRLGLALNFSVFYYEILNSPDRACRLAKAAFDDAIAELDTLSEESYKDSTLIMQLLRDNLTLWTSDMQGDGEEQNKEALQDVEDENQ

B1: FAM‐Ahx‐hDMX_(335‐373) ^pSer342/pSer367 (peptide)
peptide: {FAM-Ahx}-SKLTHSL[pS]TSDITAIPEKENEGNDVPDCRRTI[pS]APVVRP-NH2
notes: hDMX (human double minute 4 protein, hDM4), human, residues 335-373; Tracer form used in the FA assays; source: synthetic peptide (Fmoc SPPS on Rink amide ProTide resin, HPLC purified)

Assays:
Conditions in all cases: both partners purified
[1] = molecular target: B1; test: fluorescence polarisation; fluorescence anisotropy, direct titration: 14-3-3 protein titrated (1/2 dilution series) against 50 nM FAM-Ahx tracer peptide; 10 mM HEPES, 150 mM NaCl, 0.1% Tween 20, 0.1% BSA, pH 7.4; 384 well plates, triplicates; protein concentration as 14-3-3 monomer; 1:1 fit, biphasic curves fitted as two separate 1:1 events (Kd1, Kd2)
[2] = molecular target: T6, FAM‐Ahx‐hDM2_(160‐192) ^pSer166/pSer186 (human, phosphoserine at 166 and at 186; N-terminal FAM-Ahx (5,6-carboxyfluorescein on an aminohexanoic acid linker); C-terminal amide); test: as above
T6 construct: hDM2 (human double minute 2 protein), human, residues 160-192; Tracer form used in the FA assays; source: synthetic peptide (Fmoc SPPS on Rink amide ProTide resin, HPLC purified)

14‐3‐3η [3] = molecular target: T1, 14‐3‐3η; test: ITC; acetylated peptide in the syringe titrated into 14-3-3η in the cell; 25 °C; 25 mM HEPES pH 7.5, 100 mM NaCl, 10 mM MgCl2, 0.5 mM TCEP; MicroCal iTC200
14‐3‐3η [4] = molecular target: T1, 14‐3‐3η; test: SPR; 14-3-3η immobilised on an NTA sensor chip (Ni2+ capture and amine coupling, about 2000 RU); acetylated peptides injected, 11 serial dilutions from 10x the FA Kd; 25 °C; Biacore T200; multicycle kinetics fitted to a Langmuir model, Kd from steady state dose-response
14‐3‐3τ = molecular target: T2, 14‐3‐3τ; test: fluorescence polarisation; fluorescence anisotropy, direct titration: 14-3-3 protein titrated (1/2 dilution series) against 50 nM FAM-Ahx tracer peptide; 10 mM HEPES, 150 mM NaCl, 0.1% Tween 20, 0.1% BSA, pH 7.4; 384 well plates, triplicates; protein concentration as 14-3-3 monomer; 1:1 fit, biphasic curves fitted as two separate 1:1 events (Kd1, Kd2)
14‐3‐3ζ = molecular target: T3, 14‐3‐3ζ; test: as above
14‐3‐3σ = molecular target: T4, 14‐3‐3σ; test: as above
14‐3‐3ε = molecular target: T5, 14‐3‐3ε; test: as above

Kd1 (first binding event) [1] [µM] | Kd (14‐3‐3η [3]) [nM] | dH (14‐3‐3η [3]) [kcal/mol] | stoichiometry N (14‐3‐3η [3]) | Kd (14‐3‐3η [4]) [nM] | koff (14‐3‐3η [4]) [s⁻¹] | kon (14‐3‐3η [4]) [M⁻¹ s⁻¹] | Binder | other results
0.091 ± 0.015 |  |  |  |  |  |  | 14‐3‐3γ (natural protein, human, UniProt P61981 1-247, looked up, 14-3-3 gamma, human, full-length protein from the pProEx HTb-His-14-3-3 construct; Written as the protomer; tag removal is told only for the ∆C proteins; source: E. coli BL21(DE3), purified (Ni2+-NTA, dialysis)) MVDREQLVQKARLAEQAERYDDMAAAMKNVTELNEPLSNEERNLLSVAYKNVVGARRSSWRVISSIEQKTSADGNEKKIEMVRAYREKIEKELEAVCQDVLSLLDNYLIKNCSETQYESKVFYLKMKGDYYRYLAEVATGEKRATVVESSEKAYSEAHEISKEHMQPTHPIRLGLALNYSVFYYEIQNAPEQACHLAKTAFDDAIAELDTLNEDSYKDSTLIMQLLRDNLTLWTSDQQDDDGGEGNN | Kd1 (first binding event) [2]: 0.089 ± 0.01 µM
 | 870 ± 95 | -3.85 ± 0.0478 | 1.28 | 189 | 0.121 | 389000 | Ac-DCRRTI[pS]APVVRPK-NH2 (SMILES CC[C@H](C)[C@H](NC(=O)[C@@H](NC(=O)[C@H](CCCNC(=N)N)NC(=O)[C@H](CCCNC(=N)N)NC(=O)[C@H](CS)NC(=O)[C@H](CC(=O)O)NC(C)=O)[C@@H](C)O)C(=O)N[C@@H](COP(=O)(O)O)C(=O)N[C@@H](C)C(=O)N1CCC[C@H]1C(=O)N[C@H](C(=O)N[C@H](C(=O)N[C@@H](CCCNC(=N)N)C(=O)N1CCC[C@H]1C(=O)N[C@@H](CCCCN)C(N)=O)C(C)C)C(C)C, Acetylated form used for ITC, SPR and crystallography; source: synthetic peptide (Fmoc SPPS, HPLC purified)) [Ac‐hDMX_(361‐374) ^pSer367] | 
0.026 ± 0.099 |  |  |  |  |  |  | 14‐3‐3β (natural protein, human, UniProt P31946 1-246, looked up, 14-3-3 beta, human, full-length protein from the pProEx HTb-His-14-3-3 construct; Written as the protomer; tag removal is told only for the ∆C proteins; source: E. coli BL21(DE3), purified (Ni2+-NTA, dialysis)) MTMDKSELVQKAKLAEQAERYDDMAAAMKAVTEQGHELSNEERNLLSVAYKNVVGARRSSWRVISSIEQKTERNEKKQQMGKEYREKIEAELQDICNDVLELLDKYLIPNATQPESKVFYLKMKGDYFRYLSEVASGDNKQTTVSNSQQAYQEAFEISKKEMQPTHPIRLGLALNFSVFYYEILNSPEKACSLAKTAFDEAIAELDTLNEESYKDSTLIMQLLRDNLTLWTSENQGDEGDAGEGEN | 
 | 14 ± 10 | -5.28 ± 0.167 | 0.94 | 8.6 | 0.0048 | 1.51e+06 | Ac-SKLTHSL[pS]TSDITAIPEKENEGNDVPDCRRTI[pS]APVVRP-NH2 (SMILES CC[C@H](C)[C@H](NC(=O)[C@H](CC(=O)O)NC(=O)[C@H](CO)NC(=O)[C@@H](NC(=O)[C@H](COP(=O)(O)O)NC(=O)[C@H](CC(C)C)NC(=O)[C@H](CO)NC(=O)[C@H](Cc1c[nH]cn1)NC(=O)[C@@H](NC(=O)[C@H](CC(C)C)NC(=O)[C@H](CCCCN)NC(=O)[C@H](CO)NC(C)=O)[C@@H](C)O)[C@@H](C)O)C(=O)N[C@H](C(=O)N[C@@H](C)C(=O)N[C@H](C(=O)N1CCC[C@H]1C(=O)N[C@@H](CCC(=O)O)C(=O)N[C@@H](CCCCN)C(=O)N[C@@H](CCC(=O)O)C(=O)N[C@@H](CC(N)=O)C(=O)N[C@@H](CCC(=O)O)C(=O)NCC(=O)N[C@@H](CC(N)=O)C(=O)N[C@@H](CC(=O)O)C(=O)N[C@H](C(=O)N1CCC[C@H]1C(=O)N[C@@H](CC(=O)O)C(=O)N[C@@H](CS)C(=O)N[C@@H](CCCNC(=N)N)C(=O)N[C@@H](CCCNC(=N)N)C(=O)N[C@H](C(=O)N[C@H](C(=O)N[C@@H](COP(=O)(O)O)C(=O)N[C@@H](C)C(=O)N1CCC[C@H]1C(=O)N[C@H](C(=O)N[C@H](C(=O)N[C@@H](CCCNC(=N)N)C(=O)N1CCC[C@H]1C(N)=O)C(C)C)C(C)C)[C@@H](C)CC)[C@@H](C)O)C(C)C)[C@@H](C)CC)[C@@H](C)O, hDMX (human double minute 4 protein, hDM4), human, residues 335-373; Acetylated form used for ITC, SPR and crystallography; source: synthetic peptide (Fmoc SPPS on Rink amide ProTide resin, HPLC purified)) [Ac‐hDMX_(335‐373) ^pSer342/pSer367] | 
 |  |  |  |  |  |  | B1 | binding result (14‐3‐3τ): binds; binding result (14‐3‐3ζ): binds; binding result (14‐3‐3σ): binds; binding result (14‐3‐3ε): binds
 | 21000 ± 3000 | -5.11 ± 0.239 | 0.72 | 37000 |  |  | Ac-SKLTHSL[pS]TSDITAI-NH2 (SMILES CC[C@H](C)[C@H](NC(=O)[C@H](C)NC(=O)[C@@H](NC(=O)[C@@H](NC(=O)[C@H](CC(=O)O)NC(=O)[C@H](CO)NC(=O)[C@@H](NC(=O)[C@H](COP(=O)(O)O)NC(=O)[C@H](CC(C)C)NC(=O)[C@H](CO)NC(=O)[C@H](Cc1c[nH]cn1)NC(=O)[C@@H](NC(=O)[C@H](CC(C)C)NC(=O)[C@H](CCCCN)NC(=O)[C@H](CO)NC(C)=O)[C@@H](C)O)[C@@H](C)O)[C@@H](C)CC)[C@@H](C)O)C(N)=O, hDMX (human double minute 4 protein, hDM4), human, residues 335-349; Acetylated form used for ITC and SPR; source: synthetic peptide (Fmoc SPPS, HPLC purified)) [Ac‐hDMX_(335‐349) ^pSer342] | 
